Laboratory results: PMC10204870, “Analysis of aptamer-target binding and molecular mechanisms by thermofluorimetric analysis and molecular dynamics simulation”

Molecular target: T1, alpha-fetoprotein (AFP) (Homo sapiens, UniProt P02771 19-609)
T1 sequence: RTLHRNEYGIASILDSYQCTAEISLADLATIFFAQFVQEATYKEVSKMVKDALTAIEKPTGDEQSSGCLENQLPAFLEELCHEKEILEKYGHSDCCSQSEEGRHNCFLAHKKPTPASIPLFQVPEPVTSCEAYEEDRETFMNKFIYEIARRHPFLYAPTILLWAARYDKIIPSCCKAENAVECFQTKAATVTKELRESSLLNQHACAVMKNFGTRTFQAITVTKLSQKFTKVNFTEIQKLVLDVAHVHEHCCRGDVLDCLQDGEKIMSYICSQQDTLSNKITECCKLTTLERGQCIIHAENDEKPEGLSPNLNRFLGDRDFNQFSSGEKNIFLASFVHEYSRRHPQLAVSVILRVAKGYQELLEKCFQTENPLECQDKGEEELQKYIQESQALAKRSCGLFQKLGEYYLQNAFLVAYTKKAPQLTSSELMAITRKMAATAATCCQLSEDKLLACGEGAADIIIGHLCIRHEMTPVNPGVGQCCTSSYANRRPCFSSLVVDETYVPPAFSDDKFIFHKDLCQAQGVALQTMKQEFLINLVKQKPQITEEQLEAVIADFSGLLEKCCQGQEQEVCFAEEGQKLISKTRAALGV
Experiment: thermofluorimetric analysis (EvaGreen melting curves); 1.25-80 nM and 1-5 nM aptamer; HEPES buffer with Na+, K+, Mg2+, Ca2+; 20 mM HEPES-Na, 120 mM NaCl, 4 mM KCl, 2 mM MgCl2, 1 mM CaCl2, pH 7.35 (aptamer diluent); 30 min at room temperature, then melt 4-80 C with EvaGreen; AFP stock
Settings: protein: recombinant; label: EvaGreen dye (non-covalent)

B1: AP273 (ssDNA)
DNA: GTGACGCTCCTAACGCTGACTCAGGTGCAGTTCTCGACTCGGTCTTGATGTGGGTCCTGTCCGTCCGAACCAATC
Q: Does B1 bind?
A: binds
